One may read the stoichiometry N as the number of molecules, sites or subunits per partner or assembly.

These results are taken from paper PMC7511232 (eLife, 2020).

One data set addresses HA-fused Atg1(593-830) (S. pombe, UniProt Q9Y7T4 593-830). Briefly: pull-down.
The data set “SEC” deals with the molecule itself. Kind of data set: SEC.

Chain of HA-fused Atg1(593-830) (Q9Y7T4 593-830): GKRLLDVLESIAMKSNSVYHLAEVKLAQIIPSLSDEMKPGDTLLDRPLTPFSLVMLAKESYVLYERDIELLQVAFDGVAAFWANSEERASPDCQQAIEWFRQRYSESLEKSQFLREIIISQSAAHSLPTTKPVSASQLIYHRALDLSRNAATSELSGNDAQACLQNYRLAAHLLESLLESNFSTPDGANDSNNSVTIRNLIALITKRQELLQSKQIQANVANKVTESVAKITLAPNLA

SSQPFYRVSPSIVPLNVIRKLTN (domain or fragment, S. pombe, UniProt O14261 522-544, looked up) [GST-fused Atg11(522-544)]: the binding result with HA-fused Atg1(593-830) is listed as “binds”.

B1: MBP-Atg11(522-583) (domain or fragment, S. pombe, UniProt O14261 522-583, looked up)
chain: SSQPFYRVSPSIVPLNVIRKLTNRKTSFTDSHILRLQDEVNQLRNELDLVNKRNEDLLIELQ
Take B1: the “stoichiometry N” value in the data set “SEC” is 2.
